Test results: US20200239597A1, “AN ANTI-APOPTOTIC FUNCTION OF PKM2 AND INTRACELLULARLY EXPRESSED SCFV ANTIBODIES” (La Jolla Institute for Allergy and Immunology, priority 2017, published 2020)

Key:
MDA-MB231 = experiment: Clonogenic rescue from BimS-induced death, MDA-MB231; type: cell-based; settings: parental MDA-MB231
Protocol: Control or IB5-expressing cells were transfected with BimS cDNA. The plates were fixed and stained with crystal violet after 12 days and the total areas of colonies were measured. Mean, SD and P values were calculated from 3 individual plates.

293T cells [1] = experiment: Rescue of 293T cells from BimS-induced apoptosis (cell viability); type: cell-based, human
Protocol: Human BimS cDNA was subcloned into a pShooter™ mammalian expression vector (pCMV/myc/cyto; Invitrogen), to allow the expression of BimS driven by a CMV promoter. […] 293T cells were then infected with the intrabody library and then transfected with 4 μg/ml BimS plasmid, using 10 l of Lipofectamine® 2000 transfection reagent (Thermo Fisher). After 24 h post-infection, the culture medium was replaced with fresh MEMc medium supplemented with 10% FBS and penicillin/streptomycin (Gibco-Invitrogen).
Cell viability was measured with a Countess™ Automated Cell Counter (Invitrogen) using trypan blue. For the clonogenic survival assay, 293T or MEFs cells were seeded in 6-well plates at 1×10^5 cells/well in a 2-ml volume, transfected with BimS cDNA and incubated for 24 h. Afterwards, the medium was replaced and the cells cultured for 3-4 days. Thereafter, the plates were rinsed with PBS and fixed and stained with a solution containing crystal violet (0.5% w/v) and glutaraldehyde (6% v/v) as described (Franken et al., 2006).

U2OS cells = experiment: Clonogenic rescue from BimS-induced death, U2OS; type: cell-based
PKM1 = PKM1 (Homo sapiens, UniProt P14618); experiment: Blue native gel electrophoresis of recombinant proteins, PKM1; type: binding
Chain of PKM1 (P14618 1-531 isoform P14618-2, species assumed): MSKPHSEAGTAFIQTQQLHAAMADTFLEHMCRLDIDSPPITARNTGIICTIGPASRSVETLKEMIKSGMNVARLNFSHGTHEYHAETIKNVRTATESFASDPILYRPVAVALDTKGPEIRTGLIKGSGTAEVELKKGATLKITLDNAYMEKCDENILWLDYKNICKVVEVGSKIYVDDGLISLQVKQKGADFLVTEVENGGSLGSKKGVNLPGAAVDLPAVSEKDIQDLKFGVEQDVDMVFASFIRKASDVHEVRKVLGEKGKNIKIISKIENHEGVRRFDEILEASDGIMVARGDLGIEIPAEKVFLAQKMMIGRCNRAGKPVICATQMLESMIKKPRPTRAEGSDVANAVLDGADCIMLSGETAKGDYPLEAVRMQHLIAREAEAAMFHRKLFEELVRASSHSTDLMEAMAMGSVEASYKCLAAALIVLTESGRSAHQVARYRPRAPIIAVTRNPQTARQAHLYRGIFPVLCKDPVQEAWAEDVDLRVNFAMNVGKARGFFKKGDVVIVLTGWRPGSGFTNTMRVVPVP

HCT116 cells = experiment: Clonogenic rescue from BimS-induced death, HCT116; type: cell-based
[2] = target: T1, pyruvate kinase M2 (PKM2) (Homo sapiens, UniProt P14618); experiment: Target protein immunoprecipitation (FLAG pull-down, mass spectrometry, immunoblot); type: binding; settings: Triton X-100 extracts of 293T cells, anti-FLAG beads
T1 construct: some intrabodies precipitated specific cellular proteins; endogenous in cells; host or cells: HEK293T (293T)
T1 sequence (P14618 whole entry): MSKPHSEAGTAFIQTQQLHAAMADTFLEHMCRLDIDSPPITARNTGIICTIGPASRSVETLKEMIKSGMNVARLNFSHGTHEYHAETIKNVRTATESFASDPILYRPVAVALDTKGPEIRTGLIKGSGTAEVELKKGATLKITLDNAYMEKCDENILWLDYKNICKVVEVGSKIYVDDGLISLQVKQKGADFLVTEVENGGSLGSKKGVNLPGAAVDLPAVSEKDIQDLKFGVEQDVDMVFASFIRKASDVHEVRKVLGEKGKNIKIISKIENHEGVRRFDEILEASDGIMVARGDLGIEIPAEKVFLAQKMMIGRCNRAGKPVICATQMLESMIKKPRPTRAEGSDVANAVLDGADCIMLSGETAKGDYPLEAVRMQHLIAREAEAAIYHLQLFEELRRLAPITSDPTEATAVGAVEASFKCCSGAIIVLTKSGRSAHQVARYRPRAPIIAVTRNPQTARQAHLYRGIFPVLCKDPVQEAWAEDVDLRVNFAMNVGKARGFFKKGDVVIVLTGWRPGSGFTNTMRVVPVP
Protocol: FIG. 1 C is a photograph of a non-limiting SDS-PAGE gel with silver stain from an immunoprecipitation assay using antibodies encoded by DNA sequences isolated from FIG. 1B. […] Intrabodies that rescued cells from BimS-induced death were chosen for pull-down analysis as described in Methods. Left panel: Triton™-X-100 (1%) cell extracts were incubated with anti-FLAG beads, then proteins eluted with 3×FLAG peptide and separated by SDS-PAGE with silver stain. Specific bands are marked with dots; some bands (e.g. at 37 and 70 kD) are nonspecific. […] The bands near 25 kD are the scFv polypeptides, whose expression levels varied.
Flag-tagged intrabody was introduced along with a tandem Strep-tag by PCR into the same lentiviral vector used for selection. 293T cells infected with the intrabody lentivirus were incubated at 30° C. for 72 h as described above. After washing with cold PBS, 5×10^8 cells were lysed for 15 minutes on ice in lysis buffer (50 mM Tris HCl, pH 7.4, 150 mM NaCl, 1 mM EDTA, 1% Triton™ X-100). Cell lysates were clarified by centrifugation for 15 minutes at 4° C. at 16,000×g. The total protein content of the soluble fraction was quantified using the BCA assay. For pull-down experiments, 10 mg of protein lysate was incubated with 200 al of EZview™ Red anti-FLAG® M2 Affini-ty Gel (Sigma-Aldrich) for 2 h at 4° C. Beads were washed 3 times in wash buffer (50 mM Tris HCl, pH 7.4, 150 mM NaCl, 1 mM EDTA, 0.1% Triton X-100). Elution was performed under native conditions by competition with 3×FLAG peptide following the manufacturer's protocol. Eluates were used for the second step purification using Strep-Tactin Superflow Plus™ [Qiagen], following the manufacturer's instructions. The final two-step purified protein was used for SDS-PAGE analysis. Bands of interest were cut out from the gel and subjected to in-gel digestion with trypsin (Promega, Fitchburg, Wis., USA) followed by MALDI TOF/TOF mass spectrometry analysis (Biomolecular and Proteomics Mass Spectrometry Facility, University of California at San Diego).

293T cells [3] = experiment: Protection from death induced by transient expression of tBid; type: cell-based, human; settings: surviving cells counted after 72 h
Protocol: FIG. 2B is a non-limiting graph representation of a transfection assay to assess the effect of IB5 in cells transfected with pro-apoptotic proteins BimS and tBid encoding cDNA. […] 293T cells were transfected treated with […] tBid or BimS cDNA. Surviving cells were counted after 72 h.

Bcl-2 family proteins = experiment: Immunoblots of Bcl-2 family proteins; type: cell-based, human; settings: alone or in combination; TEPP-46 27 μM
Protocol: Levels of several Bcl-2 family proteins were unchanged following IB5 expression or incubation with TEPP-46, or both. Cell lysates from 293T cells infected with and without IB5 and incubated with and without TEPP-46 (27 μM) were separated on SDS-12% polyacrylamide gels. Bcl-2 family proteins were detected by immunoblotting. The bands were quantified using ImageJ and normalized to the control cell lysate on the leftmost lane.
293T cells were washed with PBS and lysed with PBS containing 1% NP-40. Protein concentration was determined using Pierce™ BCA reagent (ThermoFisher; 23221, 23224). 35 μg protein was loaded in each lane of 12% SDS-PAGE gels. Proteins were transferred to nitrocellulose membrane and immunoblotted with the following primary antibodies: anti-Bax antibody (Santa Cruz N20), anti-Bak antibody (Cell Signaling 3814), anti-Bid antibody (R&D Systems AF860), anti-Bim antibody (Sigma B7929), anti-Puma antibody (Cell Signaling 4976), anti-Bcl-2 antibody (Abcam 32124), anti-Bcl-xL antibody (Cell Signaling 2764) and anti-Mcl-1 (Santa Cruz S19) at 1:1000 dilution. The secondary anti-rabbit and mouse antibodies, conjugated with HRP, were obtained from Santa Cruz and were used at 1:2000 dilution. The luminescence signal was detected using ECL reagent (ThermoFisher 32106).

B1: IB5: intracellularly expressed single-chain antibody (scFv) specific for PKM2, SEQ ID NO: 2; also made as monovalent recombinant scFv in E. coli (protein)
scFv: MAQVQLVETGPGLVKPSETLSLRCTVSGGSFDNYYWNWIRQPPGKGLEYIGYVFPSTGATNYNPSLGSRVTISLDTSKNQFSLTLTSVTTADTAIYYCVRSGHDLWTGSTWFDPWGQWTTVTVSSGGGGSGGGGSGGGGSEIVLTQSPGTLSLSPGERATLSCRASQSVSSSYLAWYQQKPGQAPRLLIYGASSRATGIPDRFSGSGSGTDFTLTISRLEPEDIAVYYCQQRSNWPRTFGQGTKVEIKRGLGGLASVDYKDDDDK
modifications: artificial intrabody clone 5
notes: also made as monovalent recombinant scFv in E. coli
MDA-MB231
  rescue from BimS-induced cell death: failed to rescue
293T cells [1]; single intrabody expressed from lentivirus, BimS cDNA transfection
  percentage of 293T cells rescued from BimS-induced death: 15-20%
293T cells [1]; weaker promoter, not shown
  survival effect when expressed with a weaker promoter: reduced
U2OS cells
  protection from BimS-induced apoptosis (clonogenicity): substantially protected
PKM1
  shift of electrophoretic mobility of recombinant PKM1: failed to shift the electrophoretic mobility
HCT116 cells
  protection from BimS-induced apoptosis (clonogenicity): substantially protected
[2]
  protein pulled down from cell extracts: pulled down a 55-kD protein now identified as pyruvate kinase M2
293T cells [3]
  protection from death induced by transient expression of tBid: protected from death
Bcl-2 family proteins
  levels of Bax, Bak, Bid, Bim, Puma, Bcl-2, Bcl-xL and Mcl-1: failed to change the mitochondrial levels
